Test results published in patent publication US20170327535A1.

Biological target: aTNFa-Fab (Fab fragment of Infliximab, Remicade)
Assay: dynamic binding capacity on a 1 mL-gel column, 1 mg/mL aTNFa-Fab at […], 55% breakthrough

B1: LB5t-Wild.4d (four connected B5 domains of PpL312), immobilized on agarose carrier (protein)
chain: KEETPETPETDSEEQVTIKENIYFEDGTVQTATFKGTFAEATAEAYRYADLLSKEHGKYTADLEDGGYTINIRFAGKEKTPEEPKEQVTIKENIYFEDGTVQTATFKGTFAEATAEAYRYADLLSKEHGKYTADLEDGGYTINIRFAGKEKTPEEPKEQVTIKENIYFEDGTVQTATFKGTFAEATAEAYRYADLLSKEHGKYTADLEDGGYTINIRFAGKEKTPEEPKEQVTIKENIYFEDGTVQTATFKGTFAEATAEAYRYADLLSKEHGKYTADLEDGGYTINIRFAGKKVDEKPEEC
modifications: coupled to maleimide-activated (EMCH) NHS Activated Sepharose 4 Fast Flow through a reactive amino acid residue
  55% DBC: 48.6 mg/mL/gel
